Experimental data: patent publication US12214052
pKd: −log10 of the molar value.

Biological target: CD22
Test: BLI

Row | Substance | pKd
1 | Epratuzumab Fab | 7.23
2 | Epratuzumab Fab-Ferritin | 7.29
